In PMC8079451, “Phosphopeptide interactions of the Nbs1 N-terminal FHA-BRCT1/2 domains” (Scientific Reports, 2021) one finds Kd data, which are given here for one molecule.

Square brackets hold non-standard residues; d marks the D form. Primed or numbered codes have the meaning given here. Ends that are not written are not given here. FITC′ = fluorescein isothiocyanate label; pT = C[C@@H](OP(=O)(O)O)[C@H](N)C(=O)O

Assay in all cases: fluorescence polarisation; 100 nM FITC-labeled phosphopeptide with increasing hsNbs1(384); room temperature, 15 min incubation; 25 mM HEPES pH 7.4, 150 mM NaCl, 1 mM EDTA, 2 mM DTT, 0.05% Tween20, 0.1% BSA; one-site model
Settings in all cases: both partners purified

In assay [1] the target is T1, hsNbs1(384), the N-terminal 384 residues of homo sapiens Nbs1 containing the FHA-BRCT1-BRCT2 domains (human, UniProt O60934 1-384).
T1 construct: gene optimised for E. coli, cloned into pET30a (NdeI/HindIII); also called wt; source: E. coli BL21(DE3) pLacI, purified (Ni-NTA, HiTrap Q, Superdex 75)
T1 sequence (looked up): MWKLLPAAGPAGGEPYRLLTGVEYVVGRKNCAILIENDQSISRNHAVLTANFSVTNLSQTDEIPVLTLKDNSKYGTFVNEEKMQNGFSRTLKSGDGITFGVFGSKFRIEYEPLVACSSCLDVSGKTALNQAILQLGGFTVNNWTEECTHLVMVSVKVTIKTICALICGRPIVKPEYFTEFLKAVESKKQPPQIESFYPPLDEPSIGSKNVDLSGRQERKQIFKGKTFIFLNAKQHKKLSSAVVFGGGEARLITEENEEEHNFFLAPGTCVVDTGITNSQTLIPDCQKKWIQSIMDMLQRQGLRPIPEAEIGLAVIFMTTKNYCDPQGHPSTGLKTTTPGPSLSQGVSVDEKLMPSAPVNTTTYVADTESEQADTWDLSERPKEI

For assay [2], the target named is T2, hsNbs1(384) S118G (human, UniProt O60934 1-384, S118G).
T2 construct: source: E. coli BL21(DE3) pLacI, purified as the wild type
T2 sequence (looked up): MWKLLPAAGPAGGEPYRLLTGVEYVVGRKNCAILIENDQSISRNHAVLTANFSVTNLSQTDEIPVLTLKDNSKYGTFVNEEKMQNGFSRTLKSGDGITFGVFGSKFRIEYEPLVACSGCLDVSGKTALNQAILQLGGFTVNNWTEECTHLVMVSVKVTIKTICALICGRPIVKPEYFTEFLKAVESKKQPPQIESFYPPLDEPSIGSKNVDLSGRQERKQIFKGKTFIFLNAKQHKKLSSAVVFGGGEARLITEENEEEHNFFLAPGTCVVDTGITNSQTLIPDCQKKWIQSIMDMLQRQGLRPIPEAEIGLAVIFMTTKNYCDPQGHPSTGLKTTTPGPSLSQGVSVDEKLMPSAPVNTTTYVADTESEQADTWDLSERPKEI

Assay [3] has as its target T3, hsNbs1(384) R28A (human, UniProt O60934 1-384, R28A).
T3 construct: source: E. coli BL21(DE3) pLacI, purified as the wild type
T3 sequence (looked up): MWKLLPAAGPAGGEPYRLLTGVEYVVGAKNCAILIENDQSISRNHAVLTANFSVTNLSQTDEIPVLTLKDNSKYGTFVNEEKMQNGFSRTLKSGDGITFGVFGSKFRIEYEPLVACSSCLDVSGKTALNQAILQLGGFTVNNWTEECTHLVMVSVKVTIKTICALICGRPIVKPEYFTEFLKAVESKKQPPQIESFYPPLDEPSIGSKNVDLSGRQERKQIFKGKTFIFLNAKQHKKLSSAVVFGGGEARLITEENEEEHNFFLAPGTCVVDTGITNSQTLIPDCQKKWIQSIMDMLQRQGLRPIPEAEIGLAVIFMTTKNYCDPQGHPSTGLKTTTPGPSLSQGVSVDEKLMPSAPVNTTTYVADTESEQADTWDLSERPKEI

B1: hsCtIP phosphopeptide R841YIPPNpTPENFWEVGFPEEQ860 with N-terminal FITC-Gly-Gly (peptide)
chain: {FITC′}-GGRYIPPN[pT]PENFWEVGFPEEQ
On to B1, for which the Kd in assay [1] worked out at 20 µM; in assay [2], 149 µM; in assay [3] it was 35.9 µM.

In general, Kd refers to a measure of binding affinity in units of concentration. Read a high Kd as a looser complex.
